In PMC7958122, “Insulin-Like Growth Factor Binding Protein-3 Exerts Its Anti-Metastatic Effect in Aerodigestive Tract Cancers by Disrupting the Protein Stability of Vimentin” (Cancers, 2021):

B1: GST-tagged vimentin coiled-coil domain deletion mutant ΔCC (1-101 linked with 411-467 aa) (domain or fragment, human, UniProt P08670 1-466, looked up)
chain: MSTRSVSSSSYRRMFGGPGTASRPSSSRSYVTTSTRTYSLGSALRPSTSRSLYASSPGGVYATRSSAVRLRSSVPGVRLLQDSVDFSLADAINTEFKNTRTISLPLPNFSSLNLRETNLDSLPLVDTHSKRTLLIKTVETRDGQVINETSQHHDDLE
notes: vimentin, human, head domain (1-101) ligated to tail domain (411-467 as printed); source: bacterial expression (pGEX-4T-2), recombinant
B2: GST-tagged head domain of vimentin (1-101 aa) (domain or fragment, human, UniProt P08670 1-101, looked up)
chain: MSTRSVSSSSYRRMFGGPGTASRPSSSRSYVTTSTRTYSLGSALRPSTSRSLYASSPGGVYATRSSAVRLRSSVPGVRLLQDSVDFSLADAINTEFKNTRT
notes: vimentin, human, head domain, residues 1-101; source: bacterial expression (pGEX-4T-2), recombinant

Molecular target: T1, recombinant IGFBP-3 protein (rBP3) of the in vitro binding assays with vimentin domains (human, UniProt P17936 28-291)
T1 construct: IGFBP-3, human, recombinant protein; by the pull-down methods it may be the purified His-IGFBP-3; source: recombinant
T1 sequence (P17936 28-291): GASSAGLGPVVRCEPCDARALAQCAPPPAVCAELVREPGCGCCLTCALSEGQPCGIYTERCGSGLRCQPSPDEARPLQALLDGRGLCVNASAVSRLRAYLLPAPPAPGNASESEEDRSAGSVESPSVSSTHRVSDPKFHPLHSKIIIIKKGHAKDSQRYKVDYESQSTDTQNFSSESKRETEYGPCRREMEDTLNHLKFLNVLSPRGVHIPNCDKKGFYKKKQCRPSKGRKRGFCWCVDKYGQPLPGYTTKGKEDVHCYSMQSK
Experiment: pull-down; in vitro binding: glutathione-agarose-bound GST-vimentin (full-length, domains or deletion mutants) incubated with purified recombinant IGFBP-3 or its C-terminal domain; TNE binding buffer, 4 °C; Western blot
Details: both partners purified

| Binder | binding result |
| --- | --- |
| B1 | binds |
| B2 | binds |
